This is an account of results in article doi:10.1101/2020.05.20.105668.

Assay [1] concerns the target s10_(long) WT peptide L195[…]212. The experiment in a line: peptide or protein array.
Assay [2] deals with s10_(long) H199Y/L207V. Nature of the assay: peptide or protein array.
The target of assay [3] is s10_(long) H199Y. The experiment in a line: peptide or protein array.
The target in assay [4] is s10_(long) H199Y/T203F. The experiment in a line: peptide or protein array.
Assay [5] deals with LOO10-GFP (circularly permuted superfolder GFP with strand 10 removed). The experiment in a line: fluorescence complementation.
The target is the same in assay [6]. The experiment in a line: competition experiment followed by fluorescence.
The target is the same in assay [7]. The experiment in a line: other fluorescence titration.

As to “LOO10-GFP (circularly permuted superfolder GFP with strand 10 removed) (domain or fragment)”, the mean microarray fluorescence in assay [1] amounted to 741 FU. The fold microarray fluorescence compared to WT in assay [2] was found to be 3 fold; in assay [3] it was 10 fold; in assay [4] it was 54 fold. As for NHYLSTQTVLS [s10_(short) WT peptide N198…208], the fold increase in 520 nm signal on complementation in assay [5] is 5 fold. As for LPDNHYLSTQTVRSKDPNE [s10 L207R peptide, long format (free 19-mer)], in assay [6], the fold weaker affinity than WT (approximated) is > 10 fold. Molecule NYYLSTQTVLS [s10_(short) H199Y peptide] came in with a fold increase in affinity compared to WT in assay [7] of 5 fold. As to NHYLSYQTVLS [s10_(short) T203Y peptide], the fold increase in affinity compared to WT in assay [7] is 2 fold. NYYLSYQTVLS [s10_(short) H199Y/T203Y peptide] showed a fold increase in affinity compared to WT in assay [7] of 9 fold.
